Laboratory results from the supplement of paper PMC10567573.

B1: FBXO3 (parent)
chain: FIDTYSDVGRYIDHYAAIKKAWDD

Variants of: B1
Assay: protein stability index of a GFP-peptide fusion (GPS, HEK-293T) (PSI 1-6); higher = more stable
Settings: c terminus: a fixed tail appended
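Also: lentivirally expressed fusions sorted by FACS into six bins by GFP to DsRed ratio, PSI derived from sequencing read proportions per bin multiplied by bin number.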

Protein stability index: each site, then its substitutions
D23: C 2.82, P 2.1, K 1.7, L 1.61, F 1.87, R 1.72, I 3.3, E 2.31, V 1.48, N 2.29, M 2.56, Q 1.44, Y 2.04, A 1.74, T 1.97, S 1.64, H 1.81, G 1.35, W 3.21
W22: I 2.1, T 1.95, Q 1.26, V 1.61, H 2.02, A 2.05, P 1.69, F 1.39, L 2.29, G 1.85, N 1.68, Y 2.3, E 2.1, C 1.95, R 1.86, K 3, D 2.05, S 1.75, M 1.64
K20: L 1.54, W 2.86, I 2.59, S 1.54, Y 2.08, Q 1.68, C 2.19, M 2.49, P 2.15, A 2.16, H 1.7, F 2.08, V 1.44, G 1.81, E 2.29, R 1.67, D 1.74, T 1.61, N 2.76
Y15: V 1.99, R 2.61, W 2.08, S 1.48, T 1.82
A21: Y 1.85, G 3.18, N 2, D 3.43, K 1.88, V 1.22, L 1.72, P 1.97, C 1.82, H 1.61, Q 1.82, F 1.96, I 2.48, T 2.23, M 3.02, S 2.12, E 1.88, R 1.96, W 1.7
K19: A 1.37, G 1.91, T 2.38, P 1.74, C 1.55, H 2.68, L 1.92, R 1.16, Q 2.07, F 1.84, I 2.39, N 1.88, Y 1.64, M 3.18, E 1.34, S 1.02, D 2.46, W 2.34, V 1.98
A16: G 2.44, T 1.42, K 2.04, M 1.25, N 1.12, Q 1.81, D 1.6, I 1.71, C 2.08, L 2.01, F 1.69, W 1.84, S 1.93, H 2.12, R 1.69, E 1.89, P 2.07, V 2.6, Y 2.71
A17: P 2.17, Q 1.62, W 2, S 2.38, N 1.63, K 1.92, D 2.23, G 1.84, V 2.18, H 2.59, T 1.68, C 1.92, R 1.98, F 3.36, E 1.72, L 1.83, M 1.24, Y 2.6, I 1.6
D24: A 2.83, K 1.58, E 2.4, F 1.67, C 1.32, L 1.79, G 1.61, H 2.7, M 1.82, I 2.86
I18: D 1.7, C 1.94, K 2.41, T 2.24, W 1.74, M 2.16, L 2.11, Q 1.54, R 1.7, S 2.13, A 2.03, N 1.46, E 1.97, H 2.39, P 1.96, Y 1.31, V 2.16, G 2.38, F 2.12
